According to article PMC3777995, “The Inhibitory Helix Controls the Intramolecular Conformational Switching of the C-Terminus of STIM1” (PLoS ONE, 2013):
Values joined by “and” are separate entries in the source; they are usually repeats but may differ in a detail not shown here. Equal values may be shown once.

Key:
[1] = target: the molecule itself; experiment: SEC; HiLoad 26/60 Superdex 200 and Superdex 200 columns calibrated with protein standards; 20 mM Tris-HCl pH 8.0, 200 mM NaCl, 1 mM EDTA
[2] = target: the molecule itself; experiment: AUC; sedimentation velocity, 42,000 rpm, 4°C, interference detection; approximately 6 mg/ml CC1-IH, 1.57 mg/ml CC1, 1.2 mg/ml MBP-IH; 20 mM Tris-HCl pH 8.0, 200 mM NaCl, 1 mM EDTA; self-associating multimerization model

Protein	stoichiometry N [1]	stoichiometry N [2]
ERSRQKYAEEELEQVREALRKAEKELESHSS (peptide, UniProt Q13586 310-340, looked up, limits 310-340 are printed for the MBP-tagged IH from which this fragment was cut; Theoretical mass 3.7 kDa; also called IH-only protein; source: E. coli, obtained by PreScission digestion of purified MBP-IH, purified (Superdex 200)) [IH-only fragment of STIM1]	2	
ERSRQKYAEEELEQVREALRKAEKELESHSS (domain or fragment, human, UniProt Q13586 310-340, looked up, made by loop-out of the CC1 fragment from MBP-CC1-IH; Theoretical mass 49 kDa; a PreScission-cleavable segment stands between MBP and IH; also called IH-MBP fusion protein; source: E. coli, purified (MBPTrap, Q-Sepharose, Superdex-200)) [MBP-IH fusion protein (MBP-tagged IH, STIM1 residues 310-340)]	2	
wild-type CC1-IH (human STIM1 amino acids 237-340) (domain or fragment, UniProt Q13586 237-340, looked up, Predominantly a dimer and partially a tetramer by AUC; His tag removed with PreScission protease; source: E. coli BL21(DE3) Codon-Plus, purified (Ni-NTA, Q-Sepharose, Superdex-200)) SKEHMKKMMKDLEGLHRAEQSLHDLQERLHKAQEEHRTVEVEKVHLEKKLRDEINLAKQEAQRLKELREGTENERSRQKYAEEELEQVREALRKAEKELESHSS		2 and 4
